The values that follow come from patent US6165749.

In this series the test system is AccIII restriction endonuclease (L2V) L2V. Description: cleavage_in_vitro. Conditions: Takara data sheet conditions; about 16 times the level of the Acc bacterium.

“AccIII assay substrate DNA (data sheet conditions)”: the activity (units per g wet cells) worked out at 8000.
